# Where two headings read alike, the source gives them in different places.
# How the values were obtained:
# [1] = tested on: ProXp-ala (Caulobacter crescentus); assay: native MS competition; settings: equimolar three-tRNA mix, 0.33 uM each; 5 uM protein; 1 mM Mg(OAc)2; unmodified transcript; AUC: 50 mM HEPES pH 6.8, 30 mM KCl, 1 mM MgCl2, 20 C; native MS: 200 mM ammonium acetate pH 7.5 (1 mM Mg(OAc)2 stated for ProXp-ala/YbaK competition); scale: ratio of complex tRNAPro:tRNACys:tRNAAla
# YbaK (Escherichia coli) [2] = biological target: YbaK (Escherichia coli) (UniProt P0AAR3); settings: cited from earlier work
# YbaK (Escherichia coli) [3] = biological target: YbaK (Escherichia coli) (UniProt P0AAR3); settings: cited from earlier work; remark: listed apart in the source
Substance,binding signal [1],Kd (YbaK (Escherichia coli) [2]),Kd (YbaK (Escherichia coli) [3])
tRNACys,1,–,–
ProRS (from UniProt P16659),–,45 nM,550 nM
tRNAPro,4,–,–
tRNAAla G35A,1,–,–

# Reference: publication PMC6344894
